Data taken from US20160024208A1 (Regeneron, published 2016).

T1: N-Term Biotin-Nav1.7 (3-1) peptide, human (human, not fully specified; N-terminal biotin attached via a G4S linker)
T1 construct: ELISA peptide
T1 peptide: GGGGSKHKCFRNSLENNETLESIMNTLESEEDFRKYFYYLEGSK

T2: N-Term Biotin Nav1.7 (3-1) peptide, mulatta (mulatta (monkey), not fully specified; N-terminal biotin attached via a G4S linker)
T2 construct: Synthetic peptide; also called Mulatta Nav1.7 3-1 N-term biotin; monkey
T2 peptide: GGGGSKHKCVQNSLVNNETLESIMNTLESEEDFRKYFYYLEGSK

T3: Native Nav1.7 (3-1) peptide, rat (rat)
T3 construct: Synthetic peptide; also called Rat Nav1.7 3-1 native
T3 peptide: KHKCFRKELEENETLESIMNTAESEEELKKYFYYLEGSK

T4: Native Nav1.7 (3-1) peptide, human (human)
T4 construct: Synthetic peptide (Celtek), unbiotinylated; also called Human Nav1.7 3-1 native; Nav1.7 3-1 native peptide
T4 peptide: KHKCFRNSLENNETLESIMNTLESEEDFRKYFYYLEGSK

T5: N-Term Biotin Nav1.7 (3-1) peptide, mouse (mouse, not fully specified; N-terminal biotin attached via a G4S linker)
T5 construct: Synthetic peptide; also called Mouse Nav1.7 3-1 N-term biotin
T5 peptide: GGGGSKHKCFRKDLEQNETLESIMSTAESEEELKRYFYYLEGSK

T6: C-term Biotin Nav1.7 (3-1) peptide, human (human, not fully specified; C-terminal biotin attached via a G4S linker)
T6 construct: Synthetic peptide; also called Human Nav1.7 3-1 C-term biotin
T6 peptide: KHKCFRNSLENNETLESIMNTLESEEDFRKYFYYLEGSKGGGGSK

T7: Native Nav1.7 (3-3) peptide, human (human)
T7 construct: Synthetic peptide, unbiotinylated; also called Human Nav1.7 3-3 native; Nav1.7 3-3 native peptide
T7 peptide: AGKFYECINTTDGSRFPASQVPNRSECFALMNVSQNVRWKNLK

T8: C-Term Biotin Nav1.7 (3-3) peptide, rat (rat, C-terminal biotin attached via a G4S linker)
T8 construct: Synthetic peptide; also called Rat Nav1.7 3-3 C-term biotin
T8 peptide: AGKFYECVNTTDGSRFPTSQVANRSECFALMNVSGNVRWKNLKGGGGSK

T9: C-term Biotin Nav1.7 (3-3) peptide, human (human, C-terminal biotin attached via a G4S linker)
T9 construct: Synthetic peptide; also called Human Nav1.7 3-3 C-term biotin
T9 peptide: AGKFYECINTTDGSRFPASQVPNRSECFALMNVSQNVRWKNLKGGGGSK

T10: C-Term Biotin Nav1.7 (3-3) peptide, mouse (mouse, C-terminal biotin attached via a G4S linker)
T10 construct: Synthetic peptide; also called Mouse Nav1.7 3-3 C-term biotin
T10 peptide: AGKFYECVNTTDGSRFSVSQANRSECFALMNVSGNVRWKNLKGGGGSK


Key:
[1] = target: T1, N-Term Biotin-Nav1.7 (3-1) peptide, …; test: ELISA on coated peptide, antibody 1 ug/ml, OD450 grade
How it was run: (§1)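 Peptides coated at 4 μg/mL in PBS, or biotinylated peptides captured at 0.4 μg/mL on avidin (2 μg/mL). Antibodies at 0.1 and 1.0 μg/mL, 1 h at room temperature, detected with HRP anti-mouse or anti-human IgG and TMB at OD450. Scores at 1 μg/ml: <0.2 −; 0.2–1 +; 1–2 ++; 2–4 +++.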

[2] = target: T2, N-Term Biotin Nav1.7 (3-1) peptide, …; test: as above
How it was run: as §1

[3] = target: T3, Native Nav1.7 (3-1) peptide, rat; test: SPR, captured antibody, peptide analyte
How it was run: (§2)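 Biacore SPR: antibody captured via Fc on anti-Fc surface, Nav1.7 loop peptides injected as analyte at several concentrations. Double-referenced sensorgrams globally fitted to a 1:1 model; KD = kd/ka, t1/2 = ln2/kd.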

[4] = target: T4, Native Nav1.7 (3-1) peptide, human; test: SPR, captured antibody, peptide analyte
How it was run: as §2

[5] = target: T2, N-Term Biotin Nav1.7 (3-1) peptide, …; test: SPR, captured antibody, peptide analyte
How it was run: as §2

[6] = target: T5, N-Term Biotin Nav1.7 (3-1) peptide, …; test: SPR, captured antibody, peptide analyte
How it was run: as §2

[7] = target: T3, Native Nav1.7 (3-1) peptide, rat; test: ELISA on coated peptide
Protocol: (§3) Anti-Naᵥ 1.7 antibodies were tested for their ability to bind to the Naᵥ 1.7 peptides. The various peptides were coated overnight onto 96-well Nunc Immunosorp plates at a concentration of 4 μg/mL in PBS, followed by blocking for 1 hour in a suitable blocking agent. For biotinylated peptides, avidin was first coated on Nunc Immunosorp plates at 2 μg/mL in PBS overnight, followed by blocking as described, and the plate was then coated with biotinylated peptides at a concentration of 0.4 μg/mL and incubated for 1 hour at room temperature. Purified anti-Naᵥ 1.7 antibodies were diluted to a final concentration of 0.1 μg/mL and 1.0 μg/mL and added to the wells of the coated microtiter plates followed by incubation for 1 hour at room temperature. Bound antibodies were detected with horseradish peroxidase (HRP) conjugated anti-mouse or anti-human IgG (Jackson Immuno Research Lab, West Grove, Pa.) depending on the antibody species and developed by colorimetric response using tetramethylbenzidine (TMB) substrate (BD Biosciences). Absorbance was read at OD₄₅₀ on a plate reader for 0.1 second.
(§4) Values in Table 11 represent absolute binding ranges (at OD450) to plate-coated peptides for antibodies added at 1 μg/ml as follows: OD450<0.2: −; 0.2<OD450<1: +; 1<OD450<2: ++; 2<OD450<4: +++; NT: Not Tested.

[8] = target: T5, N-Term Biotin Nav1.7 (3-1) peptide, …; test: ELISA on coated peptide
Protocol: as §3, §4

[9] = target: T11, full-length human Nav1.7 fused at its N-terminus to GFP, expressed in HEK293 cells (human, UniProt Q15858 1-1988); test: flow cytometry; % stained hNav1.7-GFP-HEK293 minus parental HEK293
T11 construct: Voltage-gated sodium channel alpha subunit; In the Western blot it stood as denatured cell lysate; also called hNav 1.7-GFP-HEK293; Nav 1.7-GFP-HEK293; not shown: green fluorescent protein (GFP) at the N-terminus
Protocol: The binding of anti-Naᵥ 1.7 human antibodies to full-length Naᵥ 1.7 expressed in HEK293 cells was determined by flow cytometry (FACS). HEK293 cells were stably-transfected with full-length human Nav1.7 fused at its N-terminus to the green fluorescent protein (GFP) to generate cell line hNaᵥ 1.7-GFP-HEK293. Antibody binding to the transfected cells overexpressing Naᵥ 1.7 was compared to binding to the parental HEK293 cell line. To perform the binding experiments, adherent cells were collected using 1 mM EDTA in PBS, washed and re-suspended in cold PBS containing 5% FBS. For each binding experiment, the anti-Naᵥ 1.7 antibody (at concentrations ranging from 1 nM to 13 nM), was added to 250,000 cells in 500 μL of PBS with 5% FBS. After incubation for 20 minutes on ice, the secondary antibody, recognizing either human-Fc and conjugated to cyanine 5 (Cy5) or recognizing mouse-Fc and conjugated to allophyocyanin (APC), was then added to the cell mixture at a final secondary antibody concentration of 1.7 nM. After incubating for 20 minutes on ice, the cells were resuspended in PBS+5% FBS and then sorted and analyzed on a flow cytometer to determine relative binding by the candidate antibodies. For FACS analysis, gating was applied to examine only healthy live cells in the antibody binding experiments, and percentage stained was recorded. Staining of secondary antibodies alone to Naᵥ 1.7-GFP-HEK293 cells gave low background signals (1-2%). Specific binding was measured as the percent binding to Naᵥ 1.7-GFP-HEK293 cells minus percent binding to parental HEK293 cells.

[10] = target: T6, C-term Biotin Nav1.7 (3-1) peptide, …; test: SPR, captured biotin-peptide, antibody analyte
[11] = target: T11, full-length human Nav1.7 fused at its …; test: cell-based or functional assay
[12] = target: T7, Native Nav1.7 (3-3) peptide, human; test: SPR, captured antibody, peptide analyte
How it was run: as §2

[13] = target: T8, C-Term Biotin Nav1.7 (3-3) peptide, rat; test: SPR, captured antibody, peptide analyte
How it was run: as §2

[14] = target: T9, C-term Biotin Nav1.7 (3-3) peptide, …; test: SPR, captured biotin-peptide, antibody analyte
[15] = target: T11, full-length human Nav1.7 fused at its …; test: flow cytometry on Nav1.7-GFP-HEK293, antibody 3.3 nM
Protocol: The specificity of binding of anti-Naᵥ 1.7 human antibodies to full-length Naᵥ 1.7 expressed in HEK293 cells was determined by peptide competition experiments using flow cytometry.
HEK293 cells stably-transfected with full-length Naᵥ 1.7 fused at its N-terminus to GFP (Naᵥ 1.7-GFP-HEK293) were used for this study. Antibody binding to the transfected cells overexpressing Naᵥ 1.7 was compared to binding in the presence of excess peptide and to binding to the parental HEK293 cell line. To perform the binding experiments, adherent cells were collected using 1 mM EDTA in PBS, washed and re-suspended in cold PBS containing 5% FBS. For each binding experiment the anti-Naᵥ 1.7 antibody at a final concentration of 3.3 nM (in PBS/5% FBS) was added to cells either directly or after incubating for 10 min on ice with a 1000-fold molar excess (3.3 uM final concentration in PBS/5% FBS) of synthetic peptide with sequence corresponding to the loop specificity of the antibody. The antibodies designated as H4H391P, H4H443B, H4H448B, and H1M797N were preincubated as described above with a synthetic peptide corresponding to EC loop 3-1 (amino acid residues 269-338 of SEQ ID NO: 670), whereas the antibodies designated as H4H468P and H1 M852N were preincubated with a synthetic peptide corresponding to EC loop 3-3 (amino acid residues 1333-1382 of SEQ ID NO: 670). The antibody or antibody-peptide mixture was then allowed to incubate with cells for 20 min on ice, followed by addition of 500 uL of cold PBS/5% FBS. Cells were collected by centrifugation, resuspended in 500 uL of cold PBS/5% FBS, and then secondary antibody matched to the antibody isotype (either anti-human-Fc conjugated to Cyanine 5 or anti-mouse-Fc conjugated to allophyococyanin) was added. Binding was detected on the flow cytometry instrument and analyzed as percent binding using the instrument software. For FACS analysis appropriate gating was applied so that only healthy, live cells were counted. Background staining of secondary antibodies alone to Naᵥ 1.7-GFP-HEK293 cells was tested and recorded for all samples, and results ranged between 1-2% binding.

[16] = target: T10, C-Term Biotin Nav1.7 (3-3) peptide, …; test: SPR, captured antibody, peptide analyte
How it was run: as §2

Row | Binder | OD450 [1] | OD450 [2] | Kd [4] | t1/2 [4] | Kd [5] | t1/2 [5] | binding result [6] | OD450 [8] | % Binding Nav1.7 [9] | Kd [10] | t1/2 [10] | Current blocking (Average % inhibition), IonWorks Quattro, 223 nM antibody [11] | Kd [12] | t1/2 [12] | binding result [13] | Kd [14] | t1/2 [14] | binding result [10] | also measured
1 | H2M799N (antibody, V domains shown, Hybridoma-derived) VH: EVQLVESGGGLVQPGGSLRLSCAASGFTFSIFWMNWVRQAPGKGLEWVAKIKQDGSEKYYVDSMKGRFTISRDNVKNSLYLQMNSLRAEDTAVYYCARGVWGSYRYTSSGLDVWGQGTTVTVSS VL: not shown | 2 to 4 od | 2 to 4 od | 9.93 nM | 17.5 min | 4.14 nM | 27.4 min | no binding | < 0.2 od | 5.7% | 0.815 nM | 106 min | 6% |  |  |  |  |  |  | binding result [3]: no binding; OD450 [7]: < 0.2 od
2 | H4H362B (antibody, V domains shown) VH: QVQLVESGAEVKKPGASVKVSCKASGYTFTTYGISWVRQAPGQGLEWMGWISAYNGKTNYAQKFQGRVTMTTDTSTNTAYMELRSLRFDDTAVYYCARDGGTPFYYWGQGTLVTVSS VL: not shown | 2 to 4 od | 2 to 4 od | 0.612 nM | 8.6 min | 0.257 nM | 36.1 min | no binding | < 0.2 od | 3.7% | 0.218 nM | 101 min | 25.5% |  |  |  |  |  |  | 

Further lines, with some results ahead:

Row | OD450 [1] | OD450 [2] | Kd [4] | t1/2 [4] | Kd [5] | t1/2 [5] | binding result [6] | OD450 [8] | % Binding Nav1.7 [9] | Kd [10] | t1/2 [10] | Current blocking (Average % inhibition), IonWorks Quattro, 223 nM antibody [11] | Kd [12] | t1/2 [12] | binding result [13] | Kd [14] | t1/2 [14] | binding result [10] | Binder | also measured
3 |  |  |  |  |  |  |  |  |  |  |  |  | 16 nM | 17 min | no binding | 0.138 nM | 743 min | no binding | H4H471P (antibody, V domains shown) VH: QVQLVESGGGLVKPGGSLRLSCAASGVTFSDYYMTWIRQAPGKGLEWVSYISTDGRTIYYADSVKGRFTISRDNAKNSLYLQMNNLRAEDTAVYYCARGVDSDDYEDFYSYYDMDVWGQGTTVTVSS VL: DIQMTQSPSSLSASVGDRVTITCRASQGISNYLAWFQQKPGKAPKSLIYAASSLQGGVPSRFSGSGSGTDFTLTISSLQPEDFATYYCQQYNSYPLTFGGGTKVEIK | 
4 |  |  |  |  |  |  |  |  | 71.8% |  |  |  | 630 nM | 0.31 min | no binding | 47.2 nM | 1.3 min | no binding | H4H468P (antibody, V domains shown, also called REGN1064) VH: QVQLVESGGGVVQPGRSLRLSCTASGFTFSVYGIHWVRQAPGKGLEWVAVIWYDGSNKYYTDSVKGRFTISRDNSKNTLYLQMNSLRAEDTALYYCAREGDLSSSSGSGGYHYVVDVWGQGTTVTVSS VL: AIQMTQSPSSLSASVGDRVTITCRASQDIRNDLGWYQQKPGNAPKLLIYSTSSLQSGVPSRFSGSGSGTDFTLTISSLQPEDFATYYCLQDYNYPLTFGGGTKVEIK | % Binding Nav1.7 (Stable Line) [15]: 89.5%; binding result [16]: no binding
